Data as given in article PMC3036719.
pKd: −log10 of the molar value. Where two headings read alike, the source gives them in different places.

What was measured:
[1] = molecular target: human fibrinogen (human) (UniProt P02671); experiment: bacterial cell adhesion ELISA; wells coated with 1 µg human fibrinogen or fragment D, blocked with 20 mg/mL BSA; 3×10^8 leptospires, 1 h at 30°C; adherent cells fixed with formaldehyde and detected with a rabbit antibody to L. biflexa; increase over wild-type L. biflexa
[2] = molecular target: fibrinogen fragment D (human); experiment: as above
[3] = molecular target: human fibrinogen (human) (UniProt P02671); experiment: ELISA; host protein (1 µg per well) immobilised in microtiter wells, blocked with 20 mg/mL BSA; recombinant LigB in 20 mg/mL BSA in PBS pH 7.2, 1 h at 37°C; bound LigB detected by its polyhistidine tag; apparent Kd from the LigB concentration at half-maximal binding
[4] = molecular target: human fibronectin from plasma (human); experiment: as above
[5] = molecular target: human fibrinogen (human) (UniProt P02671); experiment: as above; remark: listed apart in the source
[6] = molecular target: human fibrinogen (human) (UniProt P02671)
[7] = molecular target: human fibronectin from fibroblasts (human); experiment: ELISA; host protein (1 µg per well) immobilised in microtiter wells, blocked with 20 mg/mL BSA; recombinant LigB in 20 mg/mL BSA in PBS pH 7.2, 1 h at 37°C; bound LigB detected by its polyhistidine tag; apparent Kd from the LigB concentration at half-maximal binding
[8] = molecular target: human type III collagen (human) (UniProt P02461); experiment: as above
[9] = molecular target: human fibronectin from plasma (human); experiment: as above; remark: listed apart in the source
[10] = molecular target: human fibrinogen (human) (UniProt P02671); experiment: ELISA; data not shown; LigB proteins on immobilised fibronectin, its 70-kDa N-terminal fragment or fibrinogen
[11] = molecular target: human fibronectin from plasma (human); experiment: as above

human fibrinogen (human), sequence (P02671 20-866, chain 1 of 3): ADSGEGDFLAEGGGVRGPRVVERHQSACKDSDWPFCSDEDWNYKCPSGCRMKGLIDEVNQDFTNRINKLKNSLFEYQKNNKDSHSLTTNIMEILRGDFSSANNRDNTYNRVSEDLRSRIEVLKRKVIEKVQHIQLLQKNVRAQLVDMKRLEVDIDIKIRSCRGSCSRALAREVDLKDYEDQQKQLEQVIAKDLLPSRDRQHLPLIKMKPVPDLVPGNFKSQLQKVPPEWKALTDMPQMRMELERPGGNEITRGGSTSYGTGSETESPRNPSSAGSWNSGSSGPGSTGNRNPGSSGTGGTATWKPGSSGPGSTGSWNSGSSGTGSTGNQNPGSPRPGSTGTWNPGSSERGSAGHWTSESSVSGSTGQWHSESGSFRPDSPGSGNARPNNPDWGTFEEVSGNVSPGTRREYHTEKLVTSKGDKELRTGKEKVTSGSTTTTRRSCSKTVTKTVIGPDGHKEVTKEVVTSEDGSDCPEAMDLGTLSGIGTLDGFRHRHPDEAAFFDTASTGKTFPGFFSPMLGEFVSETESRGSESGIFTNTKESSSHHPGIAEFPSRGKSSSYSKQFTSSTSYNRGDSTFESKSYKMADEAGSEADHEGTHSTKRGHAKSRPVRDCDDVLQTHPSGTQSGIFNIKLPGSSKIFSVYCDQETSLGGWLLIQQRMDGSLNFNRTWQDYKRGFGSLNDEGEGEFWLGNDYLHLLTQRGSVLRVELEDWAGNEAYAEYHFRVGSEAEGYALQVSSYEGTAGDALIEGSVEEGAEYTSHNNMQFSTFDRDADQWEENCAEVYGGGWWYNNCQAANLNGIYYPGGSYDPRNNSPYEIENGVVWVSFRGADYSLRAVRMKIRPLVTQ
human fibrinogen (human), sequence (P02675 31-491, chain 2 of 3, further chain): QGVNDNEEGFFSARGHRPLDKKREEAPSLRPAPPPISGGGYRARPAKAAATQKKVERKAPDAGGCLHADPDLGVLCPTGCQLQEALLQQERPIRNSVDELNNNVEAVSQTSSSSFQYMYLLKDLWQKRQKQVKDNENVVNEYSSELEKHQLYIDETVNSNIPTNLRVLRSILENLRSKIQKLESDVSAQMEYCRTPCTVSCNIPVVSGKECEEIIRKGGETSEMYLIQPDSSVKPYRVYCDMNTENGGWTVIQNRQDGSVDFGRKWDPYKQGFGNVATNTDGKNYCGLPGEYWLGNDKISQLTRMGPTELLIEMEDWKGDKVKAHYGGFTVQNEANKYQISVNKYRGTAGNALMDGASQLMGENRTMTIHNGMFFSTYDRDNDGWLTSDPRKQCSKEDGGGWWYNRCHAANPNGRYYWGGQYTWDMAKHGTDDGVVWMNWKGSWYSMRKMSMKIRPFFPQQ
human fibrinogen (human), sequence (P02679 27-453, chain 3 of 3, further chain): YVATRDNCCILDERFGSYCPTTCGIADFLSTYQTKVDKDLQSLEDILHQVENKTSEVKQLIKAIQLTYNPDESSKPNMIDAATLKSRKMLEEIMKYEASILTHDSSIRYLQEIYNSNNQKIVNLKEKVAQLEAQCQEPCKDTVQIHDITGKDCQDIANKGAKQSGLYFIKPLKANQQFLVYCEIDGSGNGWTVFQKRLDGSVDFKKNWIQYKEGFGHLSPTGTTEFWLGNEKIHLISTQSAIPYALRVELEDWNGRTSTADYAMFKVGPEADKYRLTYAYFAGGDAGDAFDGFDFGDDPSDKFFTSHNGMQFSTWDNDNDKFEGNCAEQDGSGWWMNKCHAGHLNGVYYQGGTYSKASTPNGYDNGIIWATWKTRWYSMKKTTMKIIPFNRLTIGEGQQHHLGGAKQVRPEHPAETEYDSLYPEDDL
fibrinogen fragment D (human), sequence (P02671 130-216, chain 1 of 3): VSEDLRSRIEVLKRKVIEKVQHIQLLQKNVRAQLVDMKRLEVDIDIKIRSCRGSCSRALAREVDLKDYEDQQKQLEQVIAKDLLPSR
fibrinogen fragment D (human), sequence (P02675 164-491, chain 2 of 3, further chain): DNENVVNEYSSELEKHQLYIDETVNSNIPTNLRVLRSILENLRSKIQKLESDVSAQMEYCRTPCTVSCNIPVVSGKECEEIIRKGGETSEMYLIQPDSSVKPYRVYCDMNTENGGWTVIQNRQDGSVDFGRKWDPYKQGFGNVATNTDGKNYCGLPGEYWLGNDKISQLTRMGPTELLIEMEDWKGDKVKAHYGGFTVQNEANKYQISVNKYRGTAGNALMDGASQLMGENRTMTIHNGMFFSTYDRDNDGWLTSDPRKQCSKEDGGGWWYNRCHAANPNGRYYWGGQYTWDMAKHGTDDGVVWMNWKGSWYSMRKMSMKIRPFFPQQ
fibrinogen fragment D (human), sequence (P02679 114-432, chain 3 of 3, further chain): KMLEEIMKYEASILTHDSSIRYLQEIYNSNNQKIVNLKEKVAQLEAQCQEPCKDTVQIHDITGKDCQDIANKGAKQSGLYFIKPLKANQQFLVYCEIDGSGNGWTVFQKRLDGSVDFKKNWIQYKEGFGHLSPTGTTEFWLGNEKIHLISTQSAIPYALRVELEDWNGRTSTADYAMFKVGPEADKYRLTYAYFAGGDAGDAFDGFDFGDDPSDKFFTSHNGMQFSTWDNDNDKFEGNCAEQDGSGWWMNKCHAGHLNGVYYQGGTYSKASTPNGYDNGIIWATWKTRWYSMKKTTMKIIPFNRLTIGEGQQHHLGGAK
human type III collagen (human), sequence (P02461 154-1221): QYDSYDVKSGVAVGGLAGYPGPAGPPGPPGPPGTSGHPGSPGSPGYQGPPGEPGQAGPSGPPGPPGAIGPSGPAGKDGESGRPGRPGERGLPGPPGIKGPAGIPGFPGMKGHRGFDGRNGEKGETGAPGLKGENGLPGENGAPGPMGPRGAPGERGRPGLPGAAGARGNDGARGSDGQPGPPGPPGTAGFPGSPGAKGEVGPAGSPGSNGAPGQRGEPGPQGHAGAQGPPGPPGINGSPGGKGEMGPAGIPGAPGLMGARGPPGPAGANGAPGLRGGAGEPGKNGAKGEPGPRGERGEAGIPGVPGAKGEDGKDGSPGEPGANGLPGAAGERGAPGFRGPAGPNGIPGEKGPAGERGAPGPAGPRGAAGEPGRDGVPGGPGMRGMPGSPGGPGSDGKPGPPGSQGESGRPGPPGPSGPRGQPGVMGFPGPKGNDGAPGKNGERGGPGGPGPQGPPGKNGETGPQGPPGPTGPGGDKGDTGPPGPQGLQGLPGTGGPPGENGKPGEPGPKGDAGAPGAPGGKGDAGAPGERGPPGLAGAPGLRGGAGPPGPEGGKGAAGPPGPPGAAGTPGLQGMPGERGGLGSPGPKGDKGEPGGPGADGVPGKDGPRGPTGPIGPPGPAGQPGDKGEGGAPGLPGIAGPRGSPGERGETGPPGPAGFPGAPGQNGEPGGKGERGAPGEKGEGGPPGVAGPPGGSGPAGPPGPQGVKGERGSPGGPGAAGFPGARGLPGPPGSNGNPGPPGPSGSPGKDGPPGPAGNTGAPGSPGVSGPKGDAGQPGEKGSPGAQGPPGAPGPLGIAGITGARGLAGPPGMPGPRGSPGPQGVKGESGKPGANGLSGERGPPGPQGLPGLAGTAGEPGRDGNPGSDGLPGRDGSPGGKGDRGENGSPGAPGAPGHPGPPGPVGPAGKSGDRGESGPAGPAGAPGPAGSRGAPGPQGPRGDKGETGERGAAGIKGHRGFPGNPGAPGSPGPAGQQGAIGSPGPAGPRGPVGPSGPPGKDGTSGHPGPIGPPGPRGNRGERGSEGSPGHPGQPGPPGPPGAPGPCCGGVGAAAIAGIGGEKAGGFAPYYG

Q: “LigA from L. interrogans expressed on L. biflexa (ligA transformant) (natural protein)” was tested. Which percent increase of adhesion over wild-type L. biflexa [1] did it give?
A: 55%

Q: And the percent increase of adhesion over wild-type L. biflexa (representative experiment) [1]?
A: 56%

Q: And the percent increase of adhesion over wild-type L. biflexa [2]?
A: 58%

Q: LigB7′-10 (domain or fragment) was tested. Which pKd [3] did it give?
A: 6.68

Q: What about the pKd [4] of the same substance?
A: 7.11

Q: LigB7′-11 (domain or fragment) was tested. Which pKd [3] did it give?
A: 7.20

Q: What about the pKd [4] of the same substance?
A: 7.57

Q: How did the pKd [3] turn out when LigB7′-12 (domain or fragment) was run?
A: 7.47

Q: What about the pKd [4] of the same substance?
A: 7.64

Q: LigB8-12 (domain or fragment) was tested. Which pKd [4] did it give?
A: 7.59

Q: LigB9-10 (domain or fragment) was tested. Which pKd [3] did it give?
A: 6.77

Q: What about the pKd [4] of the same substance?
A: 6.60

Q: How did the pKd [5] turn out when LigB9-11 (domain or fragment) was run?
A: 7.55

Q: What about the decrease of thrombin-catalysed fibrin formation from purified fibrinogen (3 µM fibrinogen preincubated with 5 µM LigB9-11; three determinations, 22 to 43%) [6] of the same substance?
A: 29%

Q: What about the pKd [7] of the same substance?
A: 7.60

Q: And the pKd [8]?
A: 7.52

Q: And the pKd [9]?
A: 7.49

Q: What about the pKd [3] of the same substance?
A: 7.57

Q: And the pKd [4]?
A: 7.51

Q: “LigB9-11 with N-terminal H6 (cloned in pET-14b) (domain or fragment)” was tested. Which residual fibrinogen-binding activity relative to LigB9-11 [10] did it give?
A: < 10%

Q: With LigB9-11′ (domain or fragment) as the substance, how does the percent decrease of fibrinogen-binding activity relative to LigB9-11 [10] read?
A: 50%

Q: What about the percent decrease of fibronectin-binding activity relative to LigB9-11 [11] of the same substance?
A: 80%

Q: LigB9-12 (domain or fragment) was tested. Which pKd [3] did it give?
A: 7.43

Q: And the pKd [4]?
A: 7.66

Q: For “LigB from L. interrogans expressed on L. biflexa (ligB transformant) (natural protein)”, which percent increase of adhesion over wild-type L. biflexa [1] is on record?
A: 55%

Q: And the percent increase of adhesion over wild-type L. biflexa (representative experiment) [1]?
A: 37%
